Laboratory results from US20220325265A1, “GLUCOCEREBROSIDASE MUTANTS” (Hoffmann-la Roche Inc., priority 2019, published 2022).
“And” between values parts separate entries of the source, which are not always exact repeats. Equal entries are not always repeated.

Columns and labels:
[1] = Determination of the kinetic parameters (Michaelis-Menten) with artificial substrate; type: biochemical; conditions: for kcat: protein concentration used: 25 nM; for Km / Vmax: res-β-glc 4-500 μM, 25 nM protein
Protocol: The kinetic parameters were examined using the artificial substrate resorufin-β-glucopyranoside (Sigma-Aldrich). For the determination, final concentrations of substrate ranging from 4-500 μM were tested. The assay followed the activity assay instructions in section 2.3.5. 25 nM final protein concentration was used for each construct. The incubation time was set to 30 min to ensure measurements in the linear signal range. The kinetics were evaluated and plotted according to Michaelis-Menten (Cornish-Bowden, 2013; Johnson, 2015). KM, Vmax was calculated by GraphPad Prism7 applying the Michaelis-Menten fit equation provided by the program. The equation model follows: […]
with: • KM: Michaelis-Menten constant [μM] • Vmax: maximum velocity of reaction [μM/min]
The kinetic parameter kcat is defined as the catalytic constant, representing the turnover number of substrate to product per time unit (here per second) (Eisenthal et al., 2007). kcat can be calculated as follows: […]
with: • kcat: turnover number [min-1] • Vmax: maximum velocity of reaction [μM/min] • [E]tot.: total enzyme concentration [nM]
Another kinetic key parameter to describe the catalytic efficiency of enzymes is the parameter kcat/KM, measured in [μM−1*s−1] in this work (Eisenthal et al., 2007).
Determining enzyme kinetic key parameters gives solid information about the efficiency and efficacy of an enzyme and how certain mutations can impact its functionality. For the determination and comparison of the enzymatic performances, KM, Vmax and kcat as well as kcat/KM were calculated for the different hGCase variants, respectively (Eisenthal et al., 2007). The according assay was performed as described in section 2.5.5, all measured with the artificial substrate res-3-glc. KM and Vmax determination for representative mutant M53T/P55T was done applying the Michaelis-Menten curve fit (GraphPad Prism7; see equation 4) as shown in the following.
The kinetic raw data is depicted in FIG. 5 (A) with progression curves following pseudo first order in a linear measurement range with a good reproducibility and low variance. The slopes of the progression curves can be replotted, with velocities V [μM/min] plotted as a function of substrate concentration [S] applied, resulting in a typical course of a Michaelis-Menten curve (Cornish-Bowden, 2013; Johnson, 2015).

hGCase = assay: Inhibition of hGCase using conditurol-β-epoxide (CBE), IC50 determination; type: biochemical, human; conditions: irreversible inhibitor conditurol-β-epoxide on the named hGCase variant; 25 nM protein, 10 min pre-incubation, 20 μM res-β-glc
Protocol: CBE is an irreversible inhibitor of glucocerebrosidases which covalently binds to the active site of the enzyme (Liou et al., 2006).
A stock solution of 100 mM CBE in H2Oultrapure was prepared. For IC50 determination, CBE concentrations ranging from 0.04-2500 μM were tested. Again, the final enzyme concentration was 25 nM. After adding the inhibitor, the enzyme was pre-incubated for 10 min before initializing the activity measurement by adding the substrate (20 μM).
IC50 evaluations were done in the same manner as described for IFG (see section above). The IC50 calculations were done using GraphPad Prism7 following equation 9.
To determine whether the active binding site of an enzyme is compromised or altered, IC50 values were calculated for active site inhibitor and compared. In this work, the natural occurring GCase inhibitor isofagomine (IFG) and conditurol-β-epoxide (CBE) were used. IFG is known as a reversible inhibitor, interacting with the active site of the GCase enzyme, whereas CBE is an irreversible inhibitor of GCase (Powe et al., 2006). The IC50 of an enzyme is defined as the concentration of an inhibitor, where the response, in this case the enzyme activity, is reduced by half (Kalliokoski et al., 2013). Both assays were conducted as described in section 2.5.6. The inhibitor profiles of M53T/P55T using IFG and CBE as well as the IC50 profiles of all residual mutants combined are shown in FIG. 4.
The raw data was plotted by transforming the applied IFG/CBE concentration to a logarithmic scale (x-axis, FIG. 4) and by normalizing the activity signal with highest signal of each data set to 100% (defined with apparent inhibitor concentration of 10-12 μM, equal to no inhibitor). IC50 values were calculated using GraphPad Prism7 following equation 9.

[2] = Heat inactivation at 55° C., residual GCase activity of purified protein; type: physicochemical; conditions: for residual GCase activity after heat inactivation: 55° C. waterbath, 50 nM protein, initial activity = 100%; for residual activities after 5 and 10 min of incubation (in words): 55° C., compared to R495HS2
Protocol: For all further GCase characterization experiments including the activity assay, 20 μM substrate concentration, 30-40 min incubation time and protein concentrations ranging from 25-100 nM were set as final assay settings to ensure measurements in the linear range. The overall DMSO concentration within the assay was kept at 0.5% (v/v) or even below, since DMSO influences the fluorescent signal with higher concentrations (experimentally tested, data not shown; confirmed by (Urban et al., 2008). Therefore, GCase activity buffer+1% (v/v) DMSO was also used for dilutions (table 2.9). The plate reader SpectraMax i3 (Molecular Devices) including the analysis software SoftMax Pro 6.4 was used for all activity measurements within this work. The program settings were kept the same for all activity runs: kinetic run, measurement temperature: 37° C., PMT Gain: high; flashes per read: 6; read height: 0.73305 mm from plate.
Another approach to test the mutants for thermal stability is the irreversible heat inactivation at 55° C. (Futami et al., 2017; Zale & Klibanov, 1986). As initial screening to select for most promising candidates, this thermal stability approach was chosen (section 3.1.1). For this, supernatant samples of each construct were taken from the 30 ml S2 cell cultures, respectively (section 2.2). The protein concentration was not adjusted. The samples were incubated for 40 min in total at 55° C. (PCR Cycler Mastercycler gradient, Eppendorf) using PCR plates (FrameStar®96 well skirted PCR plate, 4titude Ltd.). Samples were taken after 5, 7, 10, 15, 20, 30 and 40 min for residual activity measurements. The activity assay was performed as described in section 2.3.5. The initial activity of each mutant was set to 100% before heating. Residual activities were calculated in regard to the initial activity. Data points were fitted using the one phase decay fit by GraphPad Prism7 following equation 3: […]
For the heat inactivation experiment of purified protein (see section 3.3.3), hGCase protein samples were prepared with a final concentration of 50 nM, diluted in hGCase activity buffer, pH 6.0 (table 2.9) and incubated for 5 and 10 minutes in the waterbath (Julabo 5A, Julabo) at 55° C.
The second approach was aimed to test residual GCase activity after thermal inactivation at a fixed temperature. With this additional approach, the focus was set on activity-based changes with increased incubation time (Futami et al., 2017; Zale & Klibanov, 1986). Here, samples were incubated for 5 and 10 minutes in the waterbath at 55° C. Residual GCase activities were measured with the initial activity set to 100% (before heating). FIG. 2 depicts calculated residual activities for tested mutants after incubation.

Molecule | IC50 (hGCase) | kcat [1] | Km [1] | Vmax [1] | residual GCase activity after heat inactivation ([2]; 5 min incubation) | residual GCase activity after heat inactivation ([2]; 10 min incubation) | residual activities after 5 and 10 min of incubation (in words) [2]
I5N: recombinant human β-glucocerebrosidase variant R495H/I5N, S2 cells; Seq. Id. No. 4 (protein, listed as Homo sapiens, recombinant human β-glucocerebrosidase variant R495H/I5N, S2 cells; Id; No. 4) ARPCNPKSFGYSSVVCVCNATYCDSFDPPTFPALGTFSRYESTRSGRRMELSMGPIQANHTGTGLLLTLQPEQKFQKVKGFGGAMTDAAALNILALSPPAQNLLLKSYFSEEGIGYNIIRVPMASCDFSIRTYTYADTPDDFQLHNFSLPEEDTKLKIPLIHRALQLAQRPVSLLASPWTSPTWLKTNGAVNGKGSLKGQPGDIYHQTWARYFVKFLDAYAEHKLQFWAVTAENEPSAGLLSGYPFQCLGFTPEHQRDFIARDLGPTLANSTHHNVRLLMLDDQRLLLPHWAKVVLTDPEAAKYVHGIAVHWYLDFLAPAKATLGETHRLFPNTMLFASEACVGSKFWEQSVRLGSWDRGMQYSHSIITNLLYHVVGWTDWNLALNPEGGPNWVRNFVDSPIIVDITKDTFYKQPMFYHLGHFSKFIPEGSQRVGLVASQKNDLDAVALMHPDGSAVVVVLNRSSKDVPLTIKDPAVGFLETISPGYSIHTYLWHRQ | – | 0.09 s⁻¹ | 118 µM | 0.14 µM/min | 31% | 16% | –
K321N/H145L: Amicus double mutant hGCase R495H/K321N/H145L produced in S2 cells; Seq. Id. No. 3 (protein, listed as Homo sapiens, Amicus double mutant hGCase R495H/K321N/H145L produced in S2 cells; Id; No. 3) ARPCIPKSFGYSSVVCVCNATYCDSFDPPTFPALGTFSRYESTRSGRRMELSMGPIQANHTGTGLLLTLQPEQKFQKVKGFGGAMTDAAALNILALSPPAQNLLLKSYFSEEGIGYNIIRVPMASCDFSIRTYTYADTPDDFQLLNFSLPEEDTKLKIPLIHRALQLAQRPVSLLASPWTSPTWLKTNGAVNGKGSLKGQPGDIYHQTWARYFVKFLDAYAEHKLQFWAVTAENEPSAGLLSGYPFQCLGFTPEHQRDFIARDLGPTLANSTHHNVRLLMLDDQRLLLPHWAKVVLTDPEAAKYVHGIAVHWYLDFLAPANATLGETHRLFPNTMLFASEACVGSKFWEQSVRLGSWDRGMQYSHSIITNLLYHVVGWTDWNLALNPEGGPNWVRNFVDSPIIVDITKDTFYKQPMFYHLGHFSKFIPEGSQRVGLVASQKNDLDAVALMHPDGSAVVVVLNRSSKDVPLTIKDPAVGFLETISPGYSIHTYLWHRQ | 35 µM | 0.09 s⁻¹ | 158 µM and 156 µM | 0.13 µM/min | – | – | significantly higher residual activities

Second part, led by results:

IC50 (hGCase) | Molecule | kcat [1] | Km [1] | Vmax [1] | residual GCase activity after heat inactivation ([2]; 5 min incubation) | residual GCase activity after heat inactivation ([2]; 10 min incubation) | residual activities after 5 and 10 min of incubation (in words) [2]
55 ± 3 µM | R495HS2: hGCase based on the Cerezyme sequence (R495H) but produced in S2 cells, His8-tagged; Seq. Id. No. 1 (protein, listed as Homo sapiens, His8 tag) ARPCIPKSFGYSSVVCVCNATYCDSFDPPTFPALGTFSRYESTRSGRRMELSMGPIQANHTGTGLLLTLQPEQKFQKVKGFGGAMTDAAALNILALSPPAQNLLLKSYFSEEGIGYNIIRVPMASCDFSIRTYTYADTPDDFQLHNFSLPEEDTKLKIPLIHRALQLAQRPVSLLASPWTSPTWLKTNGAVNGKGSLKGQPGDIYHQTWARYFVKFLDAYAEHKLQFWAVTAENEPSAGLLSGYPFQCLGFTPEHQRDFIARDLGPTLANSTHHNVRLLMLDDQRLLLPHWAKVVLTDPEAAKYVHGIAVHWYLDFLAPAKATLGETHRLFPNTMLFASEACVGSKFWEQSVRLGSWDRGMQYSHSIITNLLYHVVGWTDWNLALNPEGGPNWVRNFVDSPIIVDITKDTFYKQPMFYHLGHFSKFIPEGSQRVGLVASQKNDLDAVALMHPDGSAVVVVLNRSSKDVPLTIKDPAVGFLETISPGYSIHTYLWHRQ | 0.05 s⁻¹ | 189 ± 45.5 µM | 0.08 ± 0.01 µM/min and 0.08 µM/min | – | – | –
28 µM | K321N: Amicus single mutant hGCase R495H/K321N produced in S2 cells; Seq. Id. No. 2 (protein, listed as Homo sapiens, Amicus single mutant hGCase R495H/K321N produced in S2 cells; Id; No. 2) ARPCIPKSFGYSSVVCVCNATYCDSFDPPTFPALGTFSRYESTRSGRRMELSMGPIQANHTGTGLLLTLQPEQKFQKVKGFGGAMTDAAALNILALSPPAQNLLLKSYFSEEGIGYNIIRVPMASCDFSIRTYTYADTPDDFQLHNFSLPEEDTKLKIPLIHRALQLAQRPVSLLASPWTSPTWLKTNGAVNGKGSLKGQPGDIYHQTWARYFVKFLDAYAEHKLQFWAVTAENEPSAGLLSGYPFQCLGFTPEHQRDFIARDLGPTLANSTHHNVRLLMLDDQRLLLPHWAKVVLTDPEAAKYVHGIAVHWYLDFLAPANATLGETHRLFPNTMLFASEACVGSKFWEQSVRLGSWDRGMQYSHSIITNLLYHVVGWTDWNLALNPEGGPNWVRNFVDSPIIVDITKDTFYKQPMFYHLGHFSKFIPEGSQRVGLVASQKNDLDAVALMHPDGSAVVVVLNRSSKDVPLTIKDPAVGFLETISPGYSIHTYLWHRQ | 0.09 s⁻¹ | 131 µM | 0.14 µM/min | – | – | significantly higher residual activities
